Measurements published in publication PMC11088715, “CsEXL3 regulate mechanical harvest-related droopy leaves under the transcriptional activation of CsBES1.2 in tea plant”.

Legend:
CsBES1.2-MBP [1] = target: T1, CsBES1.2-MBP (Camellia sinensis (cDNA from cv. …, UniProt UPI0010362774 1-322)); assay: competition; unlabeled mutant vs biotin-P2 probe; did not outcompete; Beyotime Chemiluminescent EMSA Kit; 6.5% polyacrylamide gel, 60 V 65 min; binding buffer, salt, pH and temperature not stated; conditions: protein: recombinant; tags: MBP (pMAL-c5x); label: unlabeled; blunt
T1 sequence: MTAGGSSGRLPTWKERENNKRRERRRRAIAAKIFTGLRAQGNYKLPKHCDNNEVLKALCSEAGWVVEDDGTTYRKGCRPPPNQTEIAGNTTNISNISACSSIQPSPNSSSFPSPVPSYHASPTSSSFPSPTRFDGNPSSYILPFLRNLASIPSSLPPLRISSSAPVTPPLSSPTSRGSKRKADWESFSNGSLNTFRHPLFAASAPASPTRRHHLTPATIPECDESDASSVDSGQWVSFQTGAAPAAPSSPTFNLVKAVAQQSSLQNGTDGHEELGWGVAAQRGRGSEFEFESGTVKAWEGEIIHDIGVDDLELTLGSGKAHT

CsBES1.2-MBP [2] = target: T1, CsBES1.2-MBP; assay: EMSA; weaker than P2 E-box probe per text; Beyotime Chemiluminescent EMSA Kit; 6.5% polyacrylamide gel, 60 V 65 min; binding buffer, salt, pH and temperature not stated; conditions: protein: recombinant; tags: MBP (pMAL-c5x); label: 5' biotin (probe); blunt
CsBES1.2-MBP [3] = target: T1, CsBES1.2-MBP; assay: EMSA; outcompeted by unlabeled probe; stronger than P1 per text; Beyotime Chemiluminescent EMSA Kit; 6.5% polyacrylamide gel, 60 V 65 min; binding buffer, salt, pH and temperature not stated; conditions: protein: recombinant; tags: MBP (pMAL-c5x); label: 5' biotin (probe); blunt

B1: Mutant CsEXL3 promoter P2 competitor (dsDNA)
DNA 1: TGAATCCAAAAAATGCAGAACT
DNA 2: AGTTCTGCATTTTTTGGATTCA
- binding result (CsBES1.2-MBP [1]): no binding

B2: CsEXL3 promoter P1 (BRRE-box) probe (dsDNA)
DNA 1: GCGAGGCGACGAGGCGGAGG
DNA 2: CCTCCGCCTCGTCGCCTCGC
- binding result (CsBES1.2-MBP [2]): binds

B3: CsEXL3 promoter P2 (E-box) probe (dsDNA)
DNA 1: TGAATCCCACGTGTGCAGAACT
DNA 2: AGTTCTGCACACGTGGGATTCA
- binding result (CsBES1.2-MBP [3]): binds
